According to article PMC3749939:

Molecular target: Mutant H2A.Z^AP3-YFP (mouse)
Assay: co-IP; immunoprecipitation with GFP antibodies of the YFP-tagged histone from dox-induced transgenic ESCs (endogenous H2A.Z knockdown background), immunoblot of the partners; uninduced cells (No DOX) as negative controls; densitometry in ImageJ

B1: NAP1L1 (natural protein)
chain: MADIDNKEQSELDQDLEDVEEVEEEETGEETKIKARQLTVQMMQNPQILAALQERLDGLVDTPTGYIESLPKVVKRRVNALKNLQVKCAQIEAKFYEEVHDLERKYAVLYQPLFDKRFEIINAIYEPTEEECEWKPDEEDEVSEELKEKAKIEDEKKDEEKEDPKGIPEFWLTVFKNVDLLSDMVQEHDEPILKHLKDIKVKFSDAGQPMSFVLEFHFEPNDYFTNEVLTKTYRMRSEPDDSDPFSFDGPEIMGCTGCQIDWKKGKNVTLKTIKKKQKHKGRGTVRTVTKTVSNDSFFNFFAPPEVPENGDLDDDAEAILAADFEIGHFLRERIIPRSVLYFTGEAIEDDDDDYDEEGEEADEEGEEEGDEENDPDYDPKKDQNPAECKQQ
In the case of B1, the fold of NAP1L1 bound against H2A.Z^WT is reported as < 2 fold.
